Publication PMC3644619

Biological target: hormone-binding domain (HBD) of ERα
Test: two-hybrid

Chain of hormone-binding domain (HBD) of ERα (P03372 whole entry, the tested form may be a part): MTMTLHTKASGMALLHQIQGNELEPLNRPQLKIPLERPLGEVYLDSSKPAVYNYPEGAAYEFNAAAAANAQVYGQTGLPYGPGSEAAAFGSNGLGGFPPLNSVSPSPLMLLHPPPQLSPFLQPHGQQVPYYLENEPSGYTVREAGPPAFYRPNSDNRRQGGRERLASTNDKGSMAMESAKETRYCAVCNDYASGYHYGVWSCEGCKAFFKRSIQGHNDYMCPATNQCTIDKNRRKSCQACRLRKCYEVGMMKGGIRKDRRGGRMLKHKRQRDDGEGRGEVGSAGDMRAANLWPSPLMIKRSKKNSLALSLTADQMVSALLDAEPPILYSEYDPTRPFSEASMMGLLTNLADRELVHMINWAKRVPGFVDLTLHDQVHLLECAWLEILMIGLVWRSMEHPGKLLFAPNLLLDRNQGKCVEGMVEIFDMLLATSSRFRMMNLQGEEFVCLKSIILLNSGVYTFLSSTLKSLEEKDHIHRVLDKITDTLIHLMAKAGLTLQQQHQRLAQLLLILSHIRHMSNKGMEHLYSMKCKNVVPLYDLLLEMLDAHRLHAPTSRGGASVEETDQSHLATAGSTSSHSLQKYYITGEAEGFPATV
Chain of PNRC1d (Q12796 186-327): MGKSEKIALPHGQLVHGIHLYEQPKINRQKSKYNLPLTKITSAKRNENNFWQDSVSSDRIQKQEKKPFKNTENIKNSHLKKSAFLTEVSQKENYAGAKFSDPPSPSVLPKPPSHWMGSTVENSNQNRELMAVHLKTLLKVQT

fold increase of affinity compared to fl PNRC (two-hybrid β-galactosidase): > 10 fold
Substance: PNRC1d (from UniProt Q12796 186-327) (natural protein)
